Data: EP4803547A1 (Biontech (Zhuhai) Pharmaceuticals R&D Co., Ltd, dated 2026)

Columns and labels:
[1] = molecular target: human CD40 protein (human, UniProt P25942 21-193, limits assumed); test: BLI (ForteBio), antibody on AHQ sensor, 100 nM antigen, 1:1 model
[2] = molecular target: human PD-1 protein (human, UniProt Q15116 25-167, limits assumed); test: as above
[3] = molecular target: T1, human PD-1 on cells (human, UniProt Q15116 25-288); test: flow cytometry on CHO-hPD-1 cells, anti-human IgG-Fc PE
T1 construct: whole, on cells; also called CHO-hPD-1; CHO-S cells overexpressing human PD-1

[4] = molecular target: T2, human CD40 on cells (human, UniProt P25942 21-277); test: flow cytometry on CHO-hCD40 cells, anti-human IgG-Fc PE
T2 construct: whole, on cells; One molecule is used for human CD40 on the three cell types; also called CHO-hCD40; CHO-S cells overexpressing human CD40

Measured: binding result

T2 sequence (P25942 21-277): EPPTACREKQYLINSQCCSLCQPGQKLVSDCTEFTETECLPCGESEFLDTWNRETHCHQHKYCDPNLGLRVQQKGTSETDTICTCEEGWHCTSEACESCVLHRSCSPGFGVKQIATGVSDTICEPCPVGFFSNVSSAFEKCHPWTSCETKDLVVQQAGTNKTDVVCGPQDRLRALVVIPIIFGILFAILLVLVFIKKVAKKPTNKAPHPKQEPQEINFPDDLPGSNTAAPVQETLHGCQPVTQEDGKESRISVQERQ
Sequence of human CD40 protein (P25942 21-193 limits assumed): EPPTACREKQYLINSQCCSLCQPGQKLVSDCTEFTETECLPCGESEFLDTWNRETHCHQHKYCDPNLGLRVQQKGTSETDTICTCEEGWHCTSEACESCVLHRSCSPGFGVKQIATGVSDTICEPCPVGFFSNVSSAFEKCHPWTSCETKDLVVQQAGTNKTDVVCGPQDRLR
Sequence of human PD-1 protein (Q15116 25-167 limits assumed): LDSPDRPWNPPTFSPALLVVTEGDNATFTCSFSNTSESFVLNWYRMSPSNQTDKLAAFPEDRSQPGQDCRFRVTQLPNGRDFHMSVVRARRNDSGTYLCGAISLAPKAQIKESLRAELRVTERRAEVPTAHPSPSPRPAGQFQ
T1 sequence (Q15116 25-288): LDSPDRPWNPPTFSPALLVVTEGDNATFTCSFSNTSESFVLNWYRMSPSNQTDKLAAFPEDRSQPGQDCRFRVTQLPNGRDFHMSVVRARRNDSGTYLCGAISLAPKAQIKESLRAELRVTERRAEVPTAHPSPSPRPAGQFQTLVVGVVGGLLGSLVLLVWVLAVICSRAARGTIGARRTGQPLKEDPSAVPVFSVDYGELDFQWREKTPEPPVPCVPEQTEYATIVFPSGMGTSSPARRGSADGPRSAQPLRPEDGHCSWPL

B1: PD1(pembro)xCD40(non-blocker, ADI-55164) (bispecific antibody, human IgG1, kappa)
heavy: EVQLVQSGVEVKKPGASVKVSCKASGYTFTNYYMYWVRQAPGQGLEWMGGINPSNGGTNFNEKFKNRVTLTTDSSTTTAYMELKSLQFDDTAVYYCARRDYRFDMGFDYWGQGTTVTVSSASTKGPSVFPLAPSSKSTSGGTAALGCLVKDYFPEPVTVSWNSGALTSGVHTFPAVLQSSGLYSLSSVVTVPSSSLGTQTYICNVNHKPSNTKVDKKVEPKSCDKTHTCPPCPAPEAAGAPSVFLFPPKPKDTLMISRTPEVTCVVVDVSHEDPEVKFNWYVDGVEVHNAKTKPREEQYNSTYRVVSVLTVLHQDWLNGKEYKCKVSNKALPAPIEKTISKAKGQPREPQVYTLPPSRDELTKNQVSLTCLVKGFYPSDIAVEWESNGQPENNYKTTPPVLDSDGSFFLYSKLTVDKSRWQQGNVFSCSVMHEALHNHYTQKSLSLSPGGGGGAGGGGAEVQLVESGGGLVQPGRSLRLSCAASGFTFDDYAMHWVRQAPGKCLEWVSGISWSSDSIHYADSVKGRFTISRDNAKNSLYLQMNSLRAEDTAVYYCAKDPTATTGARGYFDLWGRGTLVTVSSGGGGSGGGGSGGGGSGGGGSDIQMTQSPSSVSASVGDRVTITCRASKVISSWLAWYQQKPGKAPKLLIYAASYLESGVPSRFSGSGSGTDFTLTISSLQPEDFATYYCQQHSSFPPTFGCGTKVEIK
light: EIVLTQSPATLSLSPGERATLSCRASKGVSTSGYSYLHWYQQKPGQAPRLLIYLASYLESGVPARFSGSGSGTDFTLTISSLEPEDFAVYYCQHSRDLPLTFGGGTKVEIKRTVAAPSVFIFPPSDEQLKSGTASVVCLLNNFYPREAKVQWKVDNALQSGNSQESVTEQDSKDSTYSLSSTLTLSKADYEKHKVYACEVTHQGLSSPVTKSFNRGEC
notes: also called BsAb-3; PD1(pembro)xCD40(ADI-55164)
binds: [1] | [2] | [3] | [4]

B2: PD1xCD40(blocker, ADI-55147) (bispecific antibody, human IgG1, kappa)
heavy: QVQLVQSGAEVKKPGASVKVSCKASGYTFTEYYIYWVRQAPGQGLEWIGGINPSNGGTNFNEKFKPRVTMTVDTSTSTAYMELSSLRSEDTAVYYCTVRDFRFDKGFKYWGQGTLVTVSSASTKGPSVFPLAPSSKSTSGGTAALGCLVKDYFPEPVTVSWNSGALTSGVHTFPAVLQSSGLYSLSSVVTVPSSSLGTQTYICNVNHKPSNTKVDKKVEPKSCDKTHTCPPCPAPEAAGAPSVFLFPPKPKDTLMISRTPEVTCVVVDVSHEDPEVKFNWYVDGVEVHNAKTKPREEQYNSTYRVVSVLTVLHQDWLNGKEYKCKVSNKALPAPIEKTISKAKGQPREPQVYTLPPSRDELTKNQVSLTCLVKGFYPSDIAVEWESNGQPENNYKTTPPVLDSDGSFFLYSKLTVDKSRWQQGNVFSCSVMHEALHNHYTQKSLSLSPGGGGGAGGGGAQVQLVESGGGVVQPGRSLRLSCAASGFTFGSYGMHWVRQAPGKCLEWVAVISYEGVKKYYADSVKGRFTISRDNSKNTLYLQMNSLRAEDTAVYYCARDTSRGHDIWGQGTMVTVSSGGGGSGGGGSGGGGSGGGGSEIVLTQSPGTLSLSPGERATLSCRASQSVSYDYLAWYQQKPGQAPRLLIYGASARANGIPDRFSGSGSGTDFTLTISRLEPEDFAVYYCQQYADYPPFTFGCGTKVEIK
light: EIVLTQSPATLSLSPGERATLSCRASKSVSTSGLNYVHWYQRKPGQAPRLLIYLGSYLDSGVPARFSGSGSGTDFTLTISSLEPEDFAVYYCQQSWELPLTFGGGTKVEIKRTVAAPSVFIFPPSDEQLKSGTASVVCLLNNFYPREAKVQWKVDNALQSGNSQESVTEQDSKDSTYSLSSTLTLSKADYEKHKVYACEVTHQGLSSPVTKSFNRGEC
notes: also called BsAb-2
binds: [1] | [2] | [3] | [4]
